Test results: PMC7860981, “Mitochondrial Enzymes of the Urea Cycle Cluster at the Inner Mitochondrial Membrane” (Frontiers in Physiology, 2020)

Biological target: T1, carbamylphosphate synthetase 1 (CPS1), endogenous in mouse liver mitochondria (mouse (endogenous in mouse liver …, UniProt Q8C196 39-1500))
T1 construct: carbamylphosphate synthetase 1, mouse, endogenous in liver mitochondria; also called CPSI; source: endogenous, mouse liver mitochondria, lysate (PBS with 2% CHAPS)
T1 sequence (looked up): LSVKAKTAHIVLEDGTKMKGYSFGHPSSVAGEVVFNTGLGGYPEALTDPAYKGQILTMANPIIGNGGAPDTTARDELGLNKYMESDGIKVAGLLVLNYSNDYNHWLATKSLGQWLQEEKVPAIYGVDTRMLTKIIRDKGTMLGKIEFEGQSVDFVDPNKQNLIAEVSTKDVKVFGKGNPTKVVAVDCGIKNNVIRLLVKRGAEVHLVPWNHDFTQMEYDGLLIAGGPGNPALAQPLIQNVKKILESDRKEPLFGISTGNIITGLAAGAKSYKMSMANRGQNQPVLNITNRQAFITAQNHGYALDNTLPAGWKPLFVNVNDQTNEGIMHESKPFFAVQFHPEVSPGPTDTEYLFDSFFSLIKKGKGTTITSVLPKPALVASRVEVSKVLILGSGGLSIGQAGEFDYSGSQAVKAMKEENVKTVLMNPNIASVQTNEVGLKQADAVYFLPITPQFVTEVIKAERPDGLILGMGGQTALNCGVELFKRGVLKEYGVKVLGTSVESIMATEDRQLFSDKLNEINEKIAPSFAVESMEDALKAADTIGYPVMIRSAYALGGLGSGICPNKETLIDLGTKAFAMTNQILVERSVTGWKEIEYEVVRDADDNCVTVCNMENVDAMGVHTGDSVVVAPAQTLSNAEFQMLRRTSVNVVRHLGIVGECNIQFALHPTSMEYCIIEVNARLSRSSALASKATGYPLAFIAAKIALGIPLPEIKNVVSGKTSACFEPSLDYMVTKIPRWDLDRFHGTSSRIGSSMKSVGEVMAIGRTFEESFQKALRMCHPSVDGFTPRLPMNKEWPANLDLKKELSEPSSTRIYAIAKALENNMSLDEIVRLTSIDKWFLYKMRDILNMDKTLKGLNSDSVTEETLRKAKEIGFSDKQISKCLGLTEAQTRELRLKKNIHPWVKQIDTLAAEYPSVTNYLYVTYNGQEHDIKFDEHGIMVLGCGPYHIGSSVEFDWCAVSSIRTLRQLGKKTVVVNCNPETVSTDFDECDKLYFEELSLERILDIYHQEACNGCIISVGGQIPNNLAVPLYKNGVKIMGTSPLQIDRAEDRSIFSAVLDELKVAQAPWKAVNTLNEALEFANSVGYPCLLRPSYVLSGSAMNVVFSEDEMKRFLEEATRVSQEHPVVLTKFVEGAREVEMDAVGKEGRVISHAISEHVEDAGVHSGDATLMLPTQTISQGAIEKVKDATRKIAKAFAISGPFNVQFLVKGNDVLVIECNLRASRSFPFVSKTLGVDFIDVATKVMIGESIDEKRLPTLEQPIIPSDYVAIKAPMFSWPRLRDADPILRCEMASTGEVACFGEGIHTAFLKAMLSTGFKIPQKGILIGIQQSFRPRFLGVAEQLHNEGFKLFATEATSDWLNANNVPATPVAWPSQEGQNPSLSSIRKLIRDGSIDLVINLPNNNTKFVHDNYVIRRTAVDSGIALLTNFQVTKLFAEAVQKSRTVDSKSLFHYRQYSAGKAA
Assay: co-IP; competition experiment: purified recombinant mVS (10 to 30-fold molar excess over CPS1) mixed 1:1 (v/v) with mitochondrial lysate (2 mg/ml protein), added to magnetic beads cross-linked to anti-CPS1 antibodies; immunoblot for NAGS, densitometry of NAGS-M bands
Settings: one partner purified

B1: recombinant mouse variable segment (mVS) of NAGS (domain or fragment, UniProt Q8R4H7 49-117, looked up)
chain: LSTARAHAEDAEGAKGRVQSPAVEEPSWTPLPTPLESPAPPAGRSLVQRDIQAFLNQCGASPGEARHWL
notes: Predicted molecular weight 9.675 kDa as printed
For B1, the “fold decrease of mNAGS co-immunoprecipitated with CPS1 in the presence of mVS” value was 5 fold.
